Measurements published in publication PMC5074518.

Assays:
[1] = biological target: purine nucleoside phosphorylase from Kluyveromyces lactis, C-terminal 6xHis-tag variant (Kluyveromyces lactis); assay: crystal structure; C-terminal 6xHis-tag variant, 8 mg/mL in 25 mM Tris-HCl, 100 mM NaCl, pH 8.0, mixed with 0.1 M sodium acetate trihydrate pH 4.6, 8% PEG4000; space group P6(1), 1.97 Å, three molecules in the asymmetric unit
[2] = biological target: purine nucleoside phosphorylase from Kluyveromyces lactis, 6xHis-tagged, as used in analytical gel filtration (Kluyveromyces lactis); assay: SEC; analytical size exclusion chromatography on a Superdex 200 Increase 10/300 GL column, calibrated with molecular weight marker proteins; single predominant peak at 12.5 mL

| stoichiometry N [1] | stoichiometry N [2] | Substance |
| --- | --- | --- |
| 3 |  | purine nucleoside phosphorylase from Kluyveromyces lactis, C-terminal 6xHis-tag variant (enzyme) |
|  | 3 | purine nucleoside phosphorylase from Kluyveromyces lactis, 6xHis-tagged, as used in analytical gel filtration (enzyme) |
